Molecular target: T1, Extended FH2 FMN1 (UniProt Q05860 961-1466)
T1 sequence (looked up): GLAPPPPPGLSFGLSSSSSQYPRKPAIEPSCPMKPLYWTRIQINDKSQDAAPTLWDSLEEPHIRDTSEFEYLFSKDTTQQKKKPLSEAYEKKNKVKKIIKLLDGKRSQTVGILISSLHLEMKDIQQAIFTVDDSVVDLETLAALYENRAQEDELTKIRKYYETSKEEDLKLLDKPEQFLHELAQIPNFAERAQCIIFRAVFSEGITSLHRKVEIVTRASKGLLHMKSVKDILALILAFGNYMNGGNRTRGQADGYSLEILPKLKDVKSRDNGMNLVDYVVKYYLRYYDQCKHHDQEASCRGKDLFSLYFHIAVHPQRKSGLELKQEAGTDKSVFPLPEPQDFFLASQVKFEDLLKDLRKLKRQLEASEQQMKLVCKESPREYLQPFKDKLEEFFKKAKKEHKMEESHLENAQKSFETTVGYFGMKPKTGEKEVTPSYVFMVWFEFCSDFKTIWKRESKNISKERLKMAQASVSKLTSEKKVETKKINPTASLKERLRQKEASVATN
Experiment: SPR

Kd: 36.5 nM
koff: 0.000803 s⁻¹
kon: 22500 M⁻¹ s⁻¹
B1: N-terminal WW1-WW2 FNBP4 (domain or fragment, UniProt Q8N3X1 214-629, looked up)
chain: GIEMGDWQEVWDENTGCYYYWNTQTNEVTWELPQYLATQVQGLQHYQPSSVPGAETSFVVNTDIYSKEKTISVSSSKSGPVIAKREVKKEVNEGIQALSNSEEEKKGVAASLLAPLLPEGIKEEEERWRRKVICKEEPVSEVKETSTTVEEATTIVKPQEIMLDNIEDPSQEDLCSVVQSGESEEEEEQDTLELELVLERKKAELRALEEGDGSVSGSSPRSDISQPASQDGMRRLMSKRGKWKMFVRATSPESTSRSSSKTGRDTPENGETAIGAENSEKIDENSDKEMEVEESPEKIKVQTTPKVEEEQDLKFQIGELANTLTSKFEFLGINRQSISNFHVLLLQTETRIADWREGALNGNYLKRKLQDAAEQLKQYEINATPKGWSCHWDRDHRRYFYVNEQSGESQWEFPDG
